Among the data in PMC10123111 are Kd values, retold here.

pKd: −log10 of the molar value.

The subject of the data set is HaloTag-JF635-DDB2 (human). Description: single-molecule binding (optical tweezers, confocal). The settings on record: with eGFP-DDB1; from kon and koff; corrected lifetime 39.0 s; UV-C photoproducts (CPD and 6-4PP), random positions; Nuclear extracts in LUMICKS C-trap flow cell, lambda DNA tethered at about 10 pN; buffer, salt, pH and temperature not given in the material.

In general, pKd refers to the Kd on a negative log10 scale, so that one unit is a factor of ten.

UV-damaged lambda DNA (40 J/m2): the pKd was 9.40.
